Article PMC10837153, “A structural vista of phosducin-like PhLP2A-chaperonin TRiC cooperation during the ATP-driven folding cycle” (Nature Communications, 2024)
Each block holds one molecule with its values, some of them ahead of it.

What was measured:
[1] = target: human TRiC (TCP-1 ring complex), his-tagged, CCT1 tagged with GFP (human) (UniProt P17987); assay: cryo-EM structure; TRiC (2 mg/ml) sequentially incubated with PFD and PhLP2A in 1:2:~1, each 20 min at RT, with 1 mM AMP-PNP; 3D-focused classification
[2] = target: human TRiC (TCP-1 ring complex), his-tagged, CCT1 tagged with GFP (human) (UniProt P17987); assay: cryo-EM structure; open TRiC (2 mg/ml) with each truncated PhLP2A mutant (TXD, NTD-TXD, TXD-CTD) in 1:2 molar ratio, 20 min at RT
[3] = target: human TRiC (TCP-1 ring complex), his-tagged, CCT1 tagged with GFP (human) (UniProt P17987); assay: cryo-EM structure; closed TRiC: TRiC (0.8 mg/ml) with each truncated PhLP2A mutant (TXD, NTD-TXD, TXD-CTD) 1:2 for 20 min, then 1 mM ATP, 6 mM NaF, 10 mM MgCl2, 50 mM KCl, 1 h at RT
[4] = target: T1, human TRiC subunit CCT4 (human, UniProt P50991 1-539); assay: cryo-EM structure; open TRiC (2 mg/ml) with each truncated PhLP2A mutant (TXD, NTD-TXD, TXD-CTD) in 1:2 molar ratio, 20 min at RT; details: both partners purified
T1 construct: TRiC subunit CCT4, human; Subunit of m2, seen only within the TRiC complex; source: High Five insect cells, purified as a subunit of TRiC
T1 sequence: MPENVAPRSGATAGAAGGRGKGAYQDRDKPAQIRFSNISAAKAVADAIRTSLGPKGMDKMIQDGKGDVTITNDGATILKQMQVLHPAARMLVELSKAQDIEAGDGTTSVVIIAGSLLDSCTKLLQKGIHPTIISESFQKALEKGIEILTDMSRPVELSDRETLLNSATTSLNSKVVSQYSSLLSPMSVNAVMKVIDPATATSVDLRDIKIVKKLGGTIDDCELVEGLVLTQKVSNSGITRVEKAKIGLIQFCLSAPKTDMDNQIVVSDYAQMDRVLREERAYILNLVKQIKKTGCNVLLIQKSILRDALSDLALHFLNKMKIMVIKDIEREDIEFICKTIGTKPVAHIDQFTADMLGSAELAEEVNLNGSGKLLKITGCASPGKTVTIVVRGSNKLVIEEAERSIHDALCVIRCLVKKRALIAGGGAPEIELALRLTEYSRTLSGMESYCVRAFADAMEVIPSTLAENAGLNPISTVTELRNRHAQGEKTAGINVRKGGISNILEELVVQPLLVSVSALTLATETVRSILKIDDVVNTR

[5] = target: T2, human TRiC subunit CCT3 (human, UniProt P49368 1-545); assay: as above; details: both partners purified
T2 construct: TRiC subunit CCT3, human; Subunit of m2, seen only within the TRiC complex; source: High Five insect cells, purified as a subunit of TRiC
T2 sequence: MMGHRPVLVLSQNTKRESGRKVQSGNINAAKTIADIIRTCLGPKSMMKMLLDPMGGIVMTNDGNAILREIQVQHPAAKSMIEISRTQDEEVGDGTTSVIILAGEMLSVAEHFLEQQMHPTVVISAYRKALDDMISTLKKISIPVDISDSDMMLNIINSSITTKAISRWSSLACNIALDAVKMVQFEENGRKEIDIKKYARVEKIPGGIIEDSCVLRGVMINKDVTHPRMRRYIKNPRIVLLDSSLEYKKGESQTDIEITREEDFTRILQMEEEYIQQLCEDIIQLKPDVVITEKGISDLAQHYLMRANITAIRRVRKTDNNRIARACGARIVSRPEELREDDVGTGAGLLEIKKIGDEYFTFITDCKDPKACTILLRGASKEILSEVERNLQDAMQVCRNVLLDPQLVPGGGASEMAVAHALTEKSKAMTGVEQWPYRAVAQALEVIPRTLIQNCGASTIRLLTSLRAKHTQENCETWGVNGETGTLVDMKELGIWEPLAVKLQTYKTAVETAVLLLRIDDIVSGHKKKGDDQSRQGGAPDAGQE

[6] = target: human TRiC (TCP-1 ring complex), his-tagged, CCT1 tagged with GFP (human) (UniProt P17987); assay: cryo-EM structure; closed TRiC: TRiC (0.8 mg/ml) with PhLP2A 1:4 for 30 min, then 1 mM ATP, 1 mM Al3(NO3)3, 6 mM NaF, 10 mM MgCl2, 50 mM KCl, 1 h at RT
[7] = target: human TRiC (TCP-1 ring complex), his-tagged, CCT1 tagged with GFP (human) (UniProt P17987); assay: native gel or EMSA; competition: unlabeled PhLP2A (0.01-10 μM) added to GFP-TRiC (0.25 μM) pre-incubated with AF-647 labeled PFD (1 μM); Native PAGE 4-16%, in-gel fluorescence
[8] = target: human TRiC (TCP-1 ring complex), his-tagged, CCT1 tagged with GFP (human) (UniProt P17987); assay: native gel or EMSA; native PAGE mobility shift; 0.25 μM open TRiC, PhLP2A 0.01-10 μM, ATPase buffer (30 mM Tris pH 7.4, 120 mM KCl, 5 mM MgCl2, 1 mM DTT), about 30 min at room temperature; apparent Kd; three repetitions

B1: PhLP2A NTD-TXD (aa 1–211), CTD truncation (domain or fragment, human, UniProt Q9H2J4 1-211, looked up)
chain: MQDPNADTEWNDILRKKGILPPKESLKELEEEAEEEQRILQQSVVKTYEDMTLEELEDHEDEFNEEDERAIEMYRRRRLAEWKATKLKNKFGEVLEISGKDYVQEVTKAGEGLWVILHLYKQGIPLCALINQHLSGLARKFPDVKFIKAISTTCIPNYPDRNLPTIFVYLEGDIKAQFIGPLVFGGMNLTRDELEWKLSESGAIMTDLEEN
notes: PhLP2A, human, NTD and TXD, aa 1-211; also called N + TXT fragment; source: E. coli BL21 Rosetta2 pLysS, purified (nickel resin, SDX200); not shown: His6 (encoded by the 3' primer), C-terminal, kept
percent of TRiC particles with NTD-TXD density in the chamber [2]: 19.8%
percent of closed TRiC particles with NTD-TXD density in the chamber [3]: 8.25%
binding result [4]: binds
binding result [5]: binds

B2: PhLP2A TXD-CTD (aa 85–239), NTD truncation (domain or fragment, human, UniProt Q9H2J4 85-239, looked up)
chain: TKLKNKFGEVLEISGKDYVQEVTKAGEGLWVILHLYKQGIPLCALINQHLSGLARKFPDVKFIKAISTTCIPNYPDRNLPTIFVYLEGDIKAQFIGPLVFGGMNLTRDELEWKLSESGAIMTDLEENPKKPIEDVLLSSVRRSVLMKRDSDSEGD
notes: PhLP2A, human, TXD and CTD, aa 85-239; the 5' primer translates to M-KLKNKFG; also called TXT-C term; source: E. coli BL21 Rosetta2 pLysS, purified (nickel resin, SDX200); not shown: His6 (encoded by the 3' primer), C-terminal, kept
binding result [5]: binds

Continued, values first:

percent of TRiC particles with PFD bound (3D classification) [1]: 25%
Molecule: human Prefoldin (from UniProt O15212 1-129) (complex)

percent of TRiC particles with PhLP2A bound (3D classification) [1]: 22.9%
percent of closed TRiC particles with PhLP2A in both chambers [6]: 9.5%
percent of closed TRiC particles with PhLP2A in one chamber [6]: 14%
percent of TRiC-bound PFD displaced [7]: < 70%
Kd [8]: 170 nM
B3: human PhLP2A (phosducin-like protein 2A), full length (natural protein)
chain: MQDPNADTEWNDILRKKGILPPKESLKELEEEAEEEQRILQQSVVKTYEDMTLEELEDHEDEFNEEDERAIEMYRRRRLAEWKATKLKNKFGEVLEISGKDYVQEVTKAGEGLWVILHLYKQGIPLCALINQHLSGLARKFPDVKFIKAISTTCIPNYPDRNLPTIFVYLEGDIKAQFIGPLVFGGMNLTRDELEWKLSESGAIMTDLEENPKKPIEDVLLSSVRRSVLMKRDSDSEGD
modifications: AF-568 (Alexa568) label, site not stated, only in the native PAGE mobility shift and competition assays
